Assay [1] has as its target T1, hu-FGFR1c-His (human, UniProt P11362 22-376).
T1 construct: also called human FGFR1c; not shown: His tag
T1 sequence: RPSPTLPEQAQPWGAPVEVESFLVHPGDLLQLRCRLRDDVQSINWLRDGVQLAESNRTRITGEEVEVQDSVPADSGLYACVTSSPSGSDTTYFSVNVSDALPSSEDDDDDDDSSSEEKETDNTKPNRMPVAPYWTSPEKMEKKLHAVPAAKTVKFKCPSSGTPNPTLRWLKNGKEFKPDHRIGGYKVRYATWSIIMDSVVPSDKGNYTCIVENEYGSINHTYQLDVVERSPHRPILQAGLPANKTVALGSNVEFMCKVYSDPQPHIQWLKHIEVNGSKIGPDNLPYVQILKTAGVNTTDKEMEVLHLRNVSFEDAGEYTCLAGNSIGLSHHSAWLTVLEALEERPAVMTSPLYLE
The assay is described as follows: ELISA (Example 10), antigen on plate (FIG. 13). In general terms: In an ELISA, binding on a coated surface is turned into a signal by an enzyme label.

In assay [2] the target is T1, hu-FGFR1c-His. Briefly: ELISA (Example 10), antigen on plate, anti-hu-Fc-HRP detection (FIG. 13). On the procedure:
Biotin-hu-β-Klotho-His, biotin-mu-βKlotho-His, hu-FGFR1c-His, and mu-FGFR1c-Fc were expressed and purified. Anti-Fc-HRP was purchased from Thermo Fisher Scientific (Rockford, Ill.). Neutravidin 96 well plates (Thermo Fisher Scientific; Rockford, Ill.) were coated with 2 μg/ml biotin-hu-β-Klotho-His or biotin-mu-β-Klotho-His in PBS (Invitrogen; Carlsbad, Calif.). Maxisorp 96 well plates (Thermo Fisher Scientific; Rockford, Ill.) were coated with 2 μg/ml hu-FGFR1c-His or mu-FGFR1c-Fc in PBS. Plates were then incubated at 4° C. overnight. Plates were blocked in 2% milk-PBS at room temperature for 1 hour. Each well was then incubated 1 hour with samples diluted in 2% milk-PBS. Plates were washed 3 times with 300 μl PBS/0.1% Tween20 (Invitrogen; Carlsbad, Calif. and Sigma-Aldrich; St. Louis, Mo.). Anti-hu-Fc-HRP was diluted 1:10000 in 2% milk-PBS and added to each well. Plates were again washed 3 times with 300 μl PBS/0.1% Tween20. Lumiglo reagent (KPL; Gaithersburg, Md.) was added and luminescence was measured (Perkin Elmer; Waltham, Mass.).

Regarding YQAWGYYV [SR4], the binding result with hu-FGFR1c-His [1] was “binds”.

B1: 1A2-Rm26 (bispecific antibody, human IgG1, kappa, N297Q, V domains shown)
VH: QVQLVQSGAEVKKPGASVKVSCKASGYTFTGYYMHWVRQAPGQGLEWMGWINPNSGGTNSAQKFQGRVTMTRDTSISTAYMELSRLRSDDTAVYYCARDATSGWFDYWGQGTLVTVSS
VL: DIVMTQTPLSSPVTLGQPASISCRSSQSLVYSDGNTYLSWLQQRPGQPPRLLIYKISNRFSGVPDRFSGSGAGTDFTLKISRVEADDVGIYYCMQAIEFPWTFGQGTQVEIKR
notes: also called H1-Rm26
Regarding B1, the binding result with hu-FGFR1c-His [2] is “binds”.
Turning to HFKCGMGLFECADP [Rm40], the binding result with hu-FGFR1c-His [1] is on record as “binds”.

B2: 2G10-Rm26 (bispecific antibody, human IgG1, lambda, N297Q)
heavy: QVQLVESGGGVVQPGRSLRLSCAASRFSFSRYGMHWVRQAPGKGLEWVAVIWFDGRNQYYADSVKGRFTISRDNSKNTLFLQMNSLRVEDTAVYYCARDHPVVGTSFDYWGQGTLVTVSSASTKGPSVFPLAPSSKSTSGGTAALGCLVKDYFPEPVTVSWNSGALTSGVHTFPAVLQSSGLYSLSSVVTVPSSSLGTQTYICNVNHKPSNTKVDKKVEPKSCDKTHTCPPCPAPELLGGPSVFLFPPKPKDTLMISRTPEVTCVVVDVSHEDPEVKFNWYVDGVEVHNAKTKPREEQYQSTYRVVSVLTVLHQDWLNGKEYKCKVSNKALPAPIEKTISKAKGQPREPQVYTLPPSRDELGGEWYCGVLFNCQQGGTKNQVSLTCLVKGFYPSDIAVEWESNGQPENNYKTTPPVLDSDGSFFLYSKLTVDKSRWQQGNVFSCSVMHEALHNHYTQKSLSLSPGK
light: QSVLTQPPSVSAAPGQKVTVSCSGSSSNIGNNYVSWYQQLPGTAPKLLIYDNNKRPSGIPDRFSGSKSGTSATLGITGLQTGDEAEYYCGTWDSSLSVVAFGGGTKLTVLGQPKANPTVTLFPPSSEELQANKATLVCLISDFYPGAVTVAWKADGSPVKAGVETTKPSKQSNNKYAASSYLSLTPEQWKSHRSYSCQVTHEGSTVEKTVAPTECS
notes: also called H2-Rm26
Consider B2, for which the binding result with hu-FGFR1c-His [2] is given as “binds”.

B3: 2G10-Rm40 (bispecific antibody, human IgG1, lambda, N297Q)
heavy: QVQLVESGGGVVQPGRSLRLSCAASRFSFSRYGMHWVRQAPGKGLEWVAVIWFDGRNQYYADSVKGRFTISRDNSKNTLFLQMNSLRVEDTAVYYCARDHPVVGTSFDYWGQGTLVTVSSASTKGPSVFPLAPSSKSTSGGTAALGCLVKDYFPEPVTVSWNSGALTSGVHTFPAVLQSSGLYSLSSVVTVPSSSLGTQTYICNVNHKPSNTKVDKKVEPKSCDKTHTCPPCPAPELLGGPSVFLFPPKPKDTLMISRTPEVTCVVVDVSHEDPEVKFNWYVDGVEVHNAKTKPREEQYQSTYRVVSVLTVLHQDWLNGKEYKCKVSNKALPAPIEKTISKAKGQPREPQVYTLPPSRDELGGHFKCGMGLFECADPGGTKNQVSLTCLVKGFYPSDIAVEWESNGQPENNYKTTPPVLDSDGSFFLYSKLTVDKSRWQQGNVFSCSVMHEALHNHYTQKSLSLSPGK
light: QSVLTQPPSVSAAPGQKVTVSCSGSSSNIGNNYVSWYQQLPGTAPKLLIYDNNKRPSGIPDRFSGSKSGTSATLGITGLQTGDEAEYYCGTWDSSLSVVAFGGGTKLTVLGQPKANPTVTLFPPSSEELQANKATLVCLISDFYPGAVTVAWKADGSPVKAGVETTKPSKQSNNKYAASSYLSLTPEQWKSHRSYSCQVTHEGSTVEKTVAPTECS
notes: also called H2-Rm40
Regarding B3, the binding result with hu-FGFR1c-His [2] is reported as “binds”.
For EWYCGVLFNCQQ [Rm26], the binding result with hu-FGFR1c-His [1] is listed as “binds”.

These data come from patent US20130129725A1 (Amgen, published 2013).
